Experimental data reported in the RNAGym collection of RNA variant scans (doi:10.7554/elife.80360).

B1: HDV Ribozyme (parent)
chain: GGCCGGCAUGGUCCCAGCCUCCUCGCUGGCGCCGGCUGGGCAACAUUCCGAGGGGACCGUCCCCUCGGUAAUGGCGAAUGGGACCCA

Variants of: B1
Experiment: self-cleavage, relative activity (ratio to wild type); higher = more cleavage; co-transcriptional

| Variant | self-cleavage |
| --- | --- |
| C18G C86A | 0 |
| C57A G82U | 0.585 |
| U9G C21A | 0.123 |
| U23G C75U | 0.089 |
| C22U G29A | 0.249 |
| G29U U65A | 0.175 |
| G17C A70C | 0.0536 |
| G50C A87G | 0.974 |
| G10A U20G | 0.0791 |
| G39U G80C | 0.181 |
| G5C A51G | 0.262 |
| G5A A77C | 0.0504 |
| C14U A43G | 0.643 |
| G5A C22U | 0.0831 |
| G6C A42U | 0.158 |
| G31A C63G | 0.365 |
| G17A A56U | 0.528 |
| C63U | 1 |
| C63A | 0.973 |
| C85G C86G | 0.905 |
| G10U G81U | 0.0791 |
| C49G A56C | 0.785 |
| C49G A70G | 0.733 |
| U60A U72A | 0.739 |

| Variant | self-cleavage |
| --- | --- |
| G34A C58U | 0.122 |
| A8C A56C | 0.692 |
| C63A A70G | 0.767 |
| U12G A78U | 0 |
| G40A A56U | 1.02 |
| G54A C85A | 0.917 |
| C4U A71U | 0.776 |
| G5U G55U | 0.394 |
| A8G U47C | 1.07 |
| G28A C66G | 0.138 |
| G10U C64U | 0.748 |
| G28C C58G | 0.0475 |
| G34U C36G | 0.0302 |
| G1C G11C | 0.131 |
| C26U C36U | 0.975 |
| A45G G52C | 1.01 |
| C26U A77G | 0.872 |
| A16U G81A | 0.813 |
| C32U G50A | 0.862 |
| U47C U72G | 0.791 |
| G5C G59A | 0.344 |
| G25C C84G | 0.158 |
| G35A C41U | 0.524 |
| U20G U65G | 0.437 |

| Variant | self-cleavage |
| --- | --- |
| C19G G52U | 0.145 |
| C18U G29C | 0.196 |
| G1A G28U | 0.106 |
| G76A C84U | 1.05 |
| A51G C63A | 0.734 |
| G17C G54U | 0.256 |
| A16U G67U | 0.975 |
| G34C C61A | 0.208 |
| C7U G74A | 0.204 |
| C62A A71U | 0.892 |
| G31A C49G | 0.34 |
| G11A U65C | 0.277 |
| A16G G52A | 0.975 |
| G52U C84U | 0.71 |
| C15A G68C | 0.458 |
| U23A C32U | 0.929 |
| G6A G17C | 0.0923 |
| G50A C75G | 0.0852 |
| C15U G81A | 0.554 |
| C15U G81U | 0.554 |
| C26U U37G | 0.346 |
| G74A A87C | 0.583 |
| C62A C66U | 0.597 |
| C22A G53C | 0.157 |

| Variant | self-cleavage |
| --- | --- |
| C21A G50C | 0.0639 |
| G39U A77C | 0.233 |
| G28A C33G | 0.149 |
| G6A C30G | 0.0678 |
| G1U C41U | 0.228 |
| A8G U60A | 0.95 |
| G5C G31A | 0.0755 |
| U65C C85U | 0.997 |
| C3U A77G | 0.739 |
| U12C C44U | 0.0692 |
| C24U A42C | 0.125 |
| G52C C64U | 0.964 |
| C3G C85G | 0.774 |
| C4U G54U | 0.789 |
| C21A G25A | 0.116 |
| C4U U37C | 0.772 |
| G39C C58A | 0.521 |
| C30U G54U | 0.597 |
| A51G A77U | 0.682 |
| A51G A77C | 0.322 |
| C14U C36U | 0.96 |
| G1C C64U | 0.155 |
| C15G G40C | 0.271 |
| G52U G67U | 0.205 |

| Variant | self-cleavage |
| --- | --- |
| C18A G38C | 0.145 |
| C21U C85U | 0.511 |
| U20C U72C | 0.0755 |
| U46C G74C | 0.277 |
| C13G C66U | 0.0692 |
| C7A G68A | 0.464 |
| C41U C84U | 0.765 |
| C49A C63G | 0.256 |
| C15G C48G | 0.739 |
| C4A G81C | 0 |
| C33A G82U | 0.0332 |
| C62A A77C | 0.623 |
| C33G A45C | 0.0449 |
| U69C G73A | 0.653 |
| G2C U46A | 0.0911 |
| A16C G68U | 0.697 |
| G29U G80C | 0.0504 |
| G50C U72C | 0.494 |
| A42C G54A | 0.271 |
| A56C C86U | 1.03 |
| G17A C44G | 0.268 |
| G25U G29U | 0.12 |
| G10A A71U | 0.712 |
| C22G C33G | 0 |

| Variant | self-cleavage |
| --- | --- |
| C62G A83G | 0.404 |
| C22G G31A | 0.121 |
| C49U C64G | 0.684 |
| A45U G76U | 0.652 |
| G1C G10A | 0.166 |
| A70G G81C | 0.277 |
| C57G C63G | 1.09 |
| C14G G81C | 0.974 |
| G40C C64U | 0.223 |
| C7G G74A | 0.138 |
| C48G C58G | 1.11 |
| U23C G40U | 0.587 |
| G17C C41A | 0.111 |
| G2C C26U | 0.124 |
| G11C G80C | 0.295 |
| C3U U72G | 0.453 |
| A51U U72G | 0.534 |
| G82A C84G | 0.232 |
| U27A A45C | 0.256 |
| C63G U69G | 0.731 |
| A43G C85G | 0.791 |
| U12A C75A | 0.095 |
| C44G G53C | 0.733 |
| C24G G25A | 0.0959 |

| Variant | self-cleavage |
| --- | --- |
| C24A A71U | 0.731 |
| C66G G74C | 0.199 |
| G68U A70G | 0.95 |
| G38U C58U | 0.295 |
| C13U A70G | 0.475 |
| C4U U46A | 0.485 |
| A51G A56U | 1 |
| C22A C86U | 0.293 |
| G5A G11C | 0.214 |
| G35U C44U | 0.193 |
| C22U C63U | 0.76 |
| G67C G74U | 0.332 |
| C26A C63G | 0.853 |
| C33G G76U | 0.116 |
| C7U C61G | 0.743 |
| C48G C86A | 1.09 |
| C26A C30U | 0.68 |
| C44A C63A | 0.882 |
| C26U C30A | 0.816 |
| G31A G73C | 0.107 |
| A56C C66U | 0.861 |
| C14U C85U | 0.831 |
| C22G G54U | 0.0841 |
